# Data reported in the supplement of paper PMC10065799, “High-throughput profiling of sequence recognition by tyrosine kinases and SH2 domains using bacterial peptide display” (eLife, 2023).
# Tested on: c-Abl (mouse)
# Assay: phosphorylation enrichment, bacterial display (enrichment ratio); higher = better substrate or ligand; peptides without Tyr show the background
# 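Further: 11-residue human phosphosite peptides and single-mutation variants displayed on the E. coli surface, counted by deep sequencing, each peptide's frequency after selection divided by its frequency in the unselected input library; frequency after pTyr selection over input frequency; kinase dosed for 20-30% of maximal phosphorylation in three min.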
row,Sequence,phosphorylation enrichment
1,PIYEGYGLPHA [ACTA1_Y171_A172G],12.7
2,PSALGYSPSLR [LLGL2_Y40],0.764
3,IAAEFYDNLPH [DEGS1_Y284_YF],0.535
4,EREFKYGAHKF [OAT_Y50_N54K_YF],0.496
5,NLVSEYQQFQD [TUBB3_Y422_D417N_YF],0.88
6,QFKGKYLAKHN [CASK_Y712_D710G_YF],0.467
7,KRIKSYNQEND [RPGRIP1L_Y448_L447S],0.454
8,IIQRAYRGHLL [SCN1A_Y1926_R1928G],0.437
9,LFEDRYLLGPS [ASS1_Y87_T91P_YF],1.07
10,KNDSIYVVKGN [KIT_Y823_N822I],0.47
11,RRIHCYRGHLW [VHL_Y112_S111C],0.527
12,GRGMPYGGRGD [TGM1_Y312_R307G],0.513
13,CLNAIYQNNLT [GSR_Y158_R153C],0.759
14,RKLVDYNSARH [BIN1_Y150_D151N],0.548
15,GEDPIYVTLEG [RTKtide_2018],1.7
16,RLLRGHDQYAY [HLA-B_Y137],0.496
17,YTGNTYRVGDT [FN1_Y106],0.569

row,Sequence,phosphorylation enrichment
1,LHSEAYLKYIE [PBRM1_Y1610],0.9
2,VDGSVYELHPS [GCK_Y413_K414E],0.94
3,EPGSLYGCGGG [ATM_Y2019_D2016G],0.584
4,DTMQTYNGNDE [TSPAN7_Y131_A127T],0.758
5,KKGMIYGGGGG [PSME1_Y249_T244K],0.447
6,YNDSAYNQQLI [ZPLD1_Y198_T197A],0.634
7,PKFHSYVSLPF [PLXNA2_Y293],0.801
8,SIKDKYVTAFF [KCNH2_Y611_L615F_YF],0.635
9,TVFSDYLHPQF [CCPG1_Y569_YF],1.53
10,AIDDKYSRREE [SART1_Y685],0.471
11,AGIKAYQSCLQ [ADGRA2_Y377_T375K],0.85
12,YRASYYRRGDR [LTK_Y677],0.693
13,YLELNYKEDEY [MME_Y502],0.929
14,GIYEDYVEGLR [MYL6_Y89_T85I],0.727
15,EILLSYPRTGY [TGM1_Y365_L366P],0.658
16,ITRDEYPSNPM [CEMIP2_Y1015],0.414

# Biological target: EPHB2 (UniProt P29323)
# Assay: as above
# Chain of EPHB2 (P29323 whole entry, looked up): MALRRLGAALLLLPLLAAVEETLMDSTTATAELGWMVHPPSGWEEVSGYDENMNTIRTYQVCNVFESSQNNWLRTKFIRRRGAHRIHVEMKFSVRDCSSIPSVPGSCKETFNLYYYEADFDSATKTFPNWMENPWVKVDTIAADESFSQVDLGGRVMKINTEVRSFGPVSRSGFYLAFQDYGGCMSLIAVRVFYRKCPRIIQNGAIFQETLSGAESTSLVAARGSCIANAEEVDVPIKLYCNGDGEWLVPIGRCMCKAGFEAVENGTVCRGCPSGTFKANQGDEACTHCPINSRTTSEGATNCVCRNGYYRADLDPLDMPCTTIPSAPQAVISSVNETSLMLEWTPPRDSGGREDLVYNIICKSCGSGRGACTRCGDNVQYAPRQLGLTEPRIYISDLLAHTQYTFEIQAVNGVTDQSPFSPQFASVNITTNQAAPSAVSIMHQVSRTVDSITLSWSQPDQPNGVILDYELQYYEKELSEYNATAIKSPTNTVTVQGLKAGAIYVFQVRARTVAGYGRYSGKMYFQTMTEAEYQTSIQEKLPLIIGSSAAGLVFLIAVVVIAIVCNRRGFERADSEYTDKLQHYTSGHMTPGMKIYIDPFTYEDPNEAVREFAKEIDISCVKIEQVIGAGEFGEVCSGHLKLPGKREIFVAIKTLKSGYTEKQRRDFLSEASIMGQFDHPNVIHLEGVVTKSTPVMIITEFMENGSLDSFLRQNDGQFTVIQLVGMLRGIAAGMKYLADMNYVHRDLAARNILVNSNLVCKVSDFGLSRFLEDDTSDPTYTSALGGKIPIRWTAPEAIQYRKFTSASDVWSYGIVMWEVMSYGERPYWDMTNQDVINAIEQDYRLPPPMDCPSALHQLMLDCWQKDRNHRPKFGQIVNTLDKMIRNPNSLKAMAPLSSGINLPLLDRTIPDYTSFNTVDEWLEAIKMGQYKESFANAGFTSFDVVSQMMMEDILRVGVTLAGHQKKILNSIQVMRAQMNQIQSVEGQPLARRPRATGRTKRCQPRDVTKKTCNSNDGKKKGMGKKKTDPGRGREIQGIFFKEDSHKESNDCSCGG
row,Sequence,phosphorylation enrichment
1,PIYEGYGLPHA [ACTA1_Y171_A172G],33.5
2,PSALGYSPSLR [LLGL2_Y40],0.628
3,IAAEFYDNLPH [DEGS1_Y284_YF],0.68
4,EREFKYGAHKF [OAT_Y50_N54K_YF],0.412
5,NLVSEYQQFQD [TUBB3_Y422_D417N_YF],0.624
6,QFKGKYLAKHN [CASK_Y712_D710G_YF],0.527
7,KRIKSYNQEND [RPGRIP1L_Y448_L447S],0.341
8,IIQRAYRGHLL [SCN1A_Y1926_R1928G],0.327
9,LFEDRYLLGPS [ASS1_Y87_T91P_YF],0.872
10,KNDSIYVVKGN [KIT_Y823_N822I],0.689
11,RRIHCYRGHLW [VHL_Y112_S111C],0.524
12,GRGMPYGGRGD [TGM1_Y312_R307G],0.325
13,CLNAIYQNNLT [GSR_Y158_R153C],0.636
14,RKLVDYNSARH [BIN1_Y150_D151N],0.338
15,GEDPIYVTLEG [RTKtide_2018],6.76
16,RLLRGHDQYAY [HLA-B_Y137],0.763
17,YTGNTYRVGDT [FN1_Y106],0.424

row,Sequence,phosphorylation enrichment
1,LHSEAYLKYIE [PBRM1_Y1610],1.2
2,VDGSVYELHPS [GCK_Y413_K414E],3.42
3,EPGSLYGCGGG [ATM_Y2019_D2016G],0.527
4,DTMQTYNGNDE [TSPAN7_Y131_A127T],0.632
5,KKGMIYGGGGG [PSME1_Y249_T244K],0.363
6,YNDSAYNQQLI [ZPLD1_Y198_T197A],0.527
7,PKFHSYVSLPF [PLXNA2_Y293],1.01
8,SIKDKYVTAFF [KCNH2_Y611_L615F_YF],0.44
9,TVFSDYLHPQF [CCPG1_Y569_YF],0.573
10,AIDDKYSRREE [SART1_Y685],0.511
11,AGIKAYQSCLQ [ADGRA2_Y377_T375K],0.55
12,YRASYYRRGDR [LTK_Y677],0.535
13,YLELNYKEDEY [MME_Y502],0.478
14,GIYEDYVEGLR [MYL6_Y89_T85I],6.61
15,EILLSYPRTGY [TGM1_Y365_L366P],0.456
16,ITRDEYPSNPM [CEMIP2_Y1015],0.369

# Biological target: FGFR3 (UniProt P22607)
# Assay: as above
# Chain of FGFR3 (P22607 whole entry, looked up): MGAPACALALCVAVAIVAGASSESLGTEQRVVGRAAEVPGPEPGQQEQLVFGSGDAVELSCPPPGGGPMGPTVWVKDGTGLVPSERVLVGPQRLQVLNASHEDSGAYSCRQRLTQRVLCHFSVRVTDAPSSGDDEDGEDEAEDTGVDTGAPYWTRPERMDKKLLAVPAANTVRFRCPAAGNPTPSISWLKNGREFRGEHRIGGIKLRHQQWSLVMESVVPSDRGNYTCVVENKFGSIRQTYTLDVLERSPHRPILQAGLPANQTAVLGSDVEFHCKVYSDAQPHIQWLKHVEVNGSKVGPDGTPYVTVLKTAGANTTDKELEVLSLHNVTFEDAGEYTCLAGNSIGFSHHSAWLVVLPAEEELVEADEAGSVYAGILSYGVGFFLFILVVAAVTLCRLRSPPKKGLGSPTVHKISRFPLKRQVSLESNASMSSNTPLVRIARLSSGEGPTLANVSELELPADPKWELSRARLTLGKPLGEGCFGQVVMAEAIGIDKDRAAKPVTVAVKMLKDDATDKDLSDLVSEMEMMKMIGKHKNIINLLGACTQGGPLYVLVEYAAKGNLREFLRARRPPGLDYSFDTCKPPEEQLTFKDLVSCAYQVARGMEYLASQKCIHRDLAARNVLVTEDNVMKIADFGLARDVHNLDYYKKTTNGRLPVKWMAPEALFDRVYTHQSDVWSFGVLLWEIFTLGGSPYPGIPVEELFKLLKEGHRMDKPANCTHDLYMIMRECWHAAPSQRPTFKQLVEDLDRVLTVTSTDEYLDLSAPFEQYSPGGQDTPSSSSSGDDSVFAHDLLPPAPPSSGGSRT
row,Sequence,phosphorylation enrichment
1,PIYEGYGLPHA [ACTA1_Y171_A172G],0.945
2,PSALGYSPSLR [LLGL2_Y40],0.46
3,IAAEFYDNLPH [DEGS1_Y284_YF],0.682
4,EREFKYGAHKF [OAT_Y50_N54K_YF],0.438
5,NLVSEYQQFQD [TUBB3_Y422_D417N_YF],0.745
6,QFKGKYLAKHN [CASK_Y712_D710G_YF],0.327
7,KRIKSYNQEND [RPGRIP1L_Y448_L447S],0.395
8,IIQRAYRGHLL [SCN1A_Y1926_R1928G],0.628
9,LFEDRYLLGPS [ASS1_Y87_T91P_YF],1.12
10,KNDSIYVVKGN [KIT_Y823_N822I],0.469
11,RRIHCYRGHLW [VHL_Y112_S111C],0.56
12,GRGMPYGGRGD [TGM1_Y312_R307G],0.449
13,CLNAIYQNNLT [GSR_Y158_R153C],0.722
14,RKLVDYNSARH [BIN1_Y150_D151N],0.326
15,GEDPIYVTLEG [RTKtide_2018],3.4
16,RLLRGHDQYAY [HLA-B_Y137],0.851
17,YTGNTYRVGDT [FN1_Y106],0.534

row,Sequence,phosphorylation enrichment
1,LHSEAYLKYIE [PBRM1_Y1610],0.743
2,VDGSVYELHPS [GCK_Y413_K414E],0.676
3,EPGSLYGCGGG [ATM_Y2019_D2016G],0.567
4,DTMQTYNGNDE [TSPAN7_Y131_A127T],0.817
5,KKGMIYGGGGG [PSME1_Y249_T244K],0.359
6,YNDSAYNQQLI [ZPLD1_Y198_T197A],0.68
7,PKFHSYVSLPF [PLXNA2_Y293],1.82
8,SIKDKYVTAFF [KCNH2_Y611_L615F_YF],0.489
9,TVFSDYLHPQF [CCPG1_Y569_YF],0.938
10,AIDDKYSRREE [SART1_Y685],0.578
11,AGIKAYQSCLQ [ADGRA2_Y377_T375K],0.572
12,YRASYYRRGDR [LTK_Y677],0.431
13,YLELNYKEDEY [MME_Y502],3.65
14,GIYEDYVEGLR [MYL6_Y89_T85I],0.86
15,EILLSYPRTGY [TGM1_Y365_L366P],0.47
16,ITRDEYPSNPM [CEMIP2_Y1015],0.467

# Tested on: c-Src
# Assay: as above
row,Sequence,phosphorylation enrichment
1,PIYEGYGLPHA [ACTA1_Y171_A172G],13.8
2,PSALGYSPSLR [LLGL2_Y40],0.692
3,IAAEFYDNLPH [DEGS1_Y284_YF],0.723
4,EREFKYGAHKF [OAT_Y50_N54K_YF],0.423
5,NLVSEYQQFQD [TUBB3_Y422_D417N_YF],0.698
6,QFKGKYLAKHN [CASK_Y712_D710G_YF],0.404
7,KRIKSYNQEND [RPGRIP1L_Y448_L447S],0.409
8,IIQRAYRGHLL [SCN1A_Y1926_R1928G],0.432
9,LFEDRYLLGPS [ASS1_Y87_T91P_YF],0.689
10,KNDSIYVVKGN [KIT_Y823_N822I],0.922
11,RRIHCYRGHLW [VHL_Y112_S111C],0.62
12,GRGMPYGGRGD [TGM1_Y312_R307G],0.402
13,CLNAIYQNNLT [GSR_Y158_R153C],1.41
14,RKLVDYNSARH [BIN1_Y150_D151N],0.378
15,GEDPIYVTLEG [RTKtide_2018],3.9
16,RLLRGHDQYAY [HLA-B_Y137],0.456
17,YTGNTYRVGDT [FN1_Y106],0.467

row,Sequence,phosphorylation enrichment
1,LHSEAYLKYIE [PBRM1_Y1610],0.941
2,VDGSVYELHPS [GCK_Y413_K414E],9.02
3,EPGSLYGCGGG [ATM_Y2019_D2016G],0.918
4,DTMQTYNGNDE [TSPAN7_Y131_A127T],0.502
5,KKGMIYGGGGG [PSME1_Y249_T244K],0.442
6,YNDSAYNQQLI [ZPLD1_Y198_T197A],0.418
7,PKFHSYVSLPF [PLXNA2_Y293],0.734
8,SIKDKYVTAFF [KCNH2_Y611_L615F_YF],0.372
9,TVFSDYLHPQF [CCPG1_Y569_YF],1.07
10,AIDDKYSRREE [SART1_Y685],0.426
11,AGIKAYQSCLQ [ADGRA2_Y377_T375K],0.55
12,YRASYYRRGDR [LTK_Y677],0.598
13,YLELNYKEDEY [MME_Y502],0.88
14,GIYEDYVEGLR [MYL6_Y89_T85I],4.26
15,EILLSYPRTGY [TGM1_Y365_L366P],0.448
16,ITRDEYPSNPM [CEMIP2_Y1015],0.345
